Reference: US20210163624A1 (Memorial Sloan Kettering, published 2021)

Tests used:
[1] = molecular target: T1, WT1-A1 heteroclitic peptide (tyrosine at position 1 of RMF)/HLA-A0201 complex on T2 cells (human); assay: flow cytometry, live T2 cells pulsed with graded WT1-A1 peptide
[2] = molecular target: T2, Biotinylated single chain WT1 peptide/HLA-A0201 complex (recombinant, refolded) (human, biotinylated (site not stated)); assay: kinetic binding analysis, sensorgram in nm against time (sec) with fit; column ka [1/Ms]
T2 construct: also called WT1/A2; HLA-A0201/WT1 peptide complex

[3] = molecular target: T3, HLA-A0201 molecule on T2 cells alone (no peptide pulsed) (human); assay: flow cytometry, live T2 cells without peptide (0 µg/ml group)
T3 construct: No exogenous peptide; It is also the MHC partner in the T2 stabilization assay; also called T2 alone; HLA-A2 molecule

[4] = molecular target: T4, RHAMM-R3 peptide/HLA-A0201 complex on T2 cells (human); assay: flow cytometry, live T2 cells pulsed with graded RHAMM-R3 peptide
T4 construct: also called RHAMM-3; R3/HLAA0201

[5] = molecular target: T2, Biotinylated single chain WT1 …; assay: kinetic binding analysis, sensorgram in nm against time (sec) with fit; column kD [M]
[6] = molecular target: T2, Biotinylated single chain WT1 …; assay: kinetic binding analysis, sensorgram in nm against time (sec) with fit; column kd [1/s]; Error in kd 1.12E-4
[7] = molecular target: T2, Biotinylated single chain WT1 …; assay: kinetic binding analysis, sensorgram in nm against time (sec) with fit; column kd [1/s]; Error in kd 2.25E-5
[8] = molecular target: T3, HLA-A0201 molecule on T2 cells alone …; assay: flow cytometry, T2 cells without peptide (0 µg/ml point)
[9] = molecular target: T4, RHAMM-R3 peptide/HLA-A0201 complex on …; assay: flow cytometry, T2 cells pulsed overnight with graded RHAMM-R3 peptide
[10] = molecular target: WT1A1-B peptide (…)/HLA-A0201 complex on T2 cells (human); assay: flow cytometry, T2 cells pulsed with WT1-A1-B peptide
[11] = molecular target: T1, WT1-A1 heteroclitic peptide (tyrosine …); assay: flow cytometry, T2 cells pulsed with WT1-A1 peptide
[12] = molecular target: T5, EW peptide/HLA-A0201 complex on T2 cells (human); assay: flow cytometry on T2 cells pulsed with EW peptide
T5 construct: also called Ewing sarcoma-derived peptide

[13] = molecular target: T6, RMF peptide (…)/HLA-A0201 complex on the cell surface (human); assay: radioimmunoassay with 125-I-labeled WT1 ab1 on JMN cells, Scatchard analysis (bivalent IgG1, avidity)
T6 construct: Either on T2 cells pulsed with the synthetic peptide, or naturally processed and presented on WT1+ HLA-A0201+ tumour cells; The assay field of each row says which; also called WT1p/A2 complex; WT1/A2

[14] = molecular target: T6, RMF peptide (…)/HLA-A0201 complex on …; assay: flow cytometry, scFv phage on T2 cells pulsed with WT1A peptide; scFv phage on T2 cells pulsed with WT1-A (RMF) peptide, 50 µg/ml
[15] = molecular target: T4, RHAMM-R3 peptide/HLA-A0201 complex on …; assay: phage ELISA on the recombinant R3/HLA-A0201 complex (R3), not on cells
[16] = molecular target: T3, HLA-A0201 molecule on T2 cells alone …; assay: flow cytometry, scFv phage on T2 cells without peptide
[17] = molecular target: T4, RHAMM-R3 peptide/HLA-A0201 complex on …; assay: flow cytometry, scFv phage on T2 cells pulsed with RHAMM-3 peptide
[18] = molecular target: T6, RMF peptide (…)/HLA-A0201 complex on …; assay: flow cytometry, scFv phage on T2 cells pulsed with WT1A peptide
[19] = molecular target: T3, HLA-A0201 molecule on T2 cells alone …; assay: T2 stabilization assay, HLA-A2 detected with mAb BB7

B1: mAb 5 (mAb clone 5) (antibody, V domains shown)
VH: QVQLQQSGPGLVKPSQTLSLTCAISGDSVSSNSAAWNWIRQSPSRGLEWLGRTYYGSKWYNDYAVSVKSRITINPDTSKNQFSLQLNSVTPEDTAVYYCARGRLGDAFDIWGQGTMVTVSS
VL: not shown
notes: The legends call it mAb 5 or mAb clone 5; also called Ext002 #5
[1]
  binding result: no binding
[2]
  kon: 468000 M⁻¹ s⁻¹
[3]
  binding result: no binding (tested: mAb concentration not on the sheet)
[4]
  binding result: no binding
[5]
  Kd: 11.7 nM
[6]
  koff: 0.00548 s⁻¹

B2: mAb 15 (mAb clone 15) (antibody, V domains shown)
VH: QVQLVQSGAEVKKPGESLKISCKGSGYNFSNKWIGWVRQLPGRGLEWIAIIYPGYSDITYSPSFQGRVTISADTSINTAYLHWHSLKASDTAMYYCVRHTALAGFDYWGLGTLVTVSS
VL: DIQMTQSPSTLSASVGDRVTITCRASQNINKWLAWYQQRPGKAPQLLIYKASSLESGVPSRFSGSGSGTEYTLTISSLQPDDFATYYCQQYNSYATFGQGTKVEIKR
notes: The legends call it mAb 15 or clone 15; also called Ext002 #15
[7]
  koff: 0.00188 s⁻¹
[2]
  kon: 245000 M⁻¹ s⁻¹
[5]
  Kd: 7.68 nM

B3: WT1 ab1, full-length human IgG1 (antibody, V domains shown)
VH: QMQLVQSGAEVKEPGESLRISCKGSGYSFTNFWISWVRQMPGKGLEWMGRVDPGYSYSTYSPSFQGHVTISADKSTSTAYLQWNSLKASDTAMYYCARVQYSGYYDWFDPWGQGTLVTVSS
VL: not shown
notes: No single sentence says that WT1 ab1 is clone #13; also called Mab WT1 ab1; ESK1
[8]
  binding result: no binding (tested: mAb 1 µg/ml)
[9]
  binding result: no binding (tested: mAb 1 µg/ml; peptide 50 µg/ml)
[10]
  binding result: no binding (tested: mAb concentration not on the sheet)
[11]
  binding result: no binding (tested: mAb concentration not on the sheet)
[12]
  binding result: no binding
[13]
  Kd: ~0.2 nM

B4: scFv phage clone 23 (scFv)
scFv: QSVLTQPPSVSGAPGQRVTISCTGSSSNIGAGYDVHWYQQLPGTAPKLLIYGNSNRPSGVPDRFSGSKSGTSASLAISGLQSEDEADYYCAAWDDSLNGYVFGTGTKLTVLGSRGGGGSGGGGSGGGGSLEMAEVQLVETGGGLLQPGGSLRLSCAASGFSVSGTYMGWVRQAPGKGLEWVALLYSGGGTYHPASLQGRFIVSRDSSKNMVYLQMNSLKAEDTAVYYCAKGGAGGGHFDSWGQGTLVTVSS
notes: also called Ext002 #23; EXT002-23
[14]
  binding result: binds
[15]
  binding result: no binding
[16]
  binding result: no binding

B5: scFv phage clone 18 (scFv)
scFv: QSVVTQPPSVSVAPGKTARITCGRNNIGSKSVHWYQQKPGQAPVLVVYDDSDRPSGIPERFSGSNSGNTATLTISRVEAGDEADYYCQVWDSSSDHVVFGGGTKLTVLGSRGGGGSGGGGSGGSLEMAEVQLVQSGGGVVRPGGSLRLSCAASGFTFDDYGMSWVRQAPGKGLEWVSGINWNGGSTGYADSVRGRFTISRDNAKNSLYLQMNSLRAEDTALYYCARERGYGYHDPHDYWGQGTLVTVSS
notes: also called Ext002 #18
[14]
  binding result: binds
[16]
  binding result: no binding
[17]
  binding result: no binding

B6: scFv phage clone 3 (scFv)
scFv: QTVVTQPPSASGTPGQRVTISCSGSSSNIGSNYVYWYQQLPGTAPKLLIYRSNQRPSGVPDRFSGSKSGTSASLAISGPRSVDEADYYCAAWDDSLNGVVFGGGTKLTVLGSRGGGGSGGGGSGGGSLEMAQVQLVQSGAEVKKPGSSVKVSCKASGGTFSSYAISWVRQAPGQGLEWMGGIIPIFGTANYAQKFQGRVTITADESTSTAYMELSSLRSEDTAVYYCARRIPPYYGMDVWGQGTTVTVSS
notes: also called Ext002 #3; EXT002-3
[16]
  binding result: no binding
[18]
  binding result: binds
[17]
  binding result: no binding

B7: WT1A1-B peptide (AMFPNAPYL) (peptide)
peptide: AMFPNAPYL
[19]
  binding result: binds

B8: WT1-A1 heteroclitic peptide (tyrosine at position 1 of RMF) (peptide)
peptide: YMFPNAPYL
[19]
  binding result: binds

B9: scFv phage clone 15 (scFv)
scFv: DIQMTQSPSTLSASVGDRVTITCRASQNINKWLAWYQQRPGKAPQLLIYKASSLESGVPSRFSGSGSGTEYTLTISSLQPDDFATYYCQQYNSYATFGQGTKVEIKRSRGGGGSGGGGSGGGGSLEMAQVQLVQSGAEVKKPGESLKISCKGSGYNFSNKWIGWVRQLPGRGLEWIAIIYPGYSDITYSPSFQGRVTISADTSINTAYLHWHSLKASDTAMYYCVRHTALAGFDYWGLGTLVTVSS
notes: also called Ext002 #15
[14]
  binding result: binds
[16]
  binding result: no binding
